Measurements reported in patent US20020110853A1 (IMMUNEX, published 2002).

Tests used:
[1] = molecular target: T1, human TWEAKR-Fc (TWEAKR extracellular domain fused to Fc portion from human IgG1) (human, 125-I labeled in the Scatchard assay); assay: ligand blot of TweakR-Fc (with and without DTT, with and without heating at 100° C.) probed with TWEAK-leucine zipper supernatant and 125I M15 anti-leucine zipper
T1 construct: the assays name only TWEAKR-Fc; also called huTWEAKR-Fc
Method: Ligand blots were generated by running either TweakR-Fc or RP-Fc as a control on a standard SDS-PAGE and blotted onto nitrocellulose. The separate samples were prepared by with and without the addition of reducing agent (DTT) and with and without heating at 100° C. to denature the proteins. This blot was probed with TWEAK-leucine zipper conditioned supernatants followed by ¹²⁵I labeled M15 anti-leucine zipper.

[2] = molecular target: T2, DR3, expressed on transfected COS cells (UniProt Q93038 25-417, limits assumed); assay: slide binding on transfected COS cells, 125I anti-leucine zipper antibody, autoradiography
T2 construct: whole, on cells; also called Apo3; WSL-1
T2 sequence (looked up): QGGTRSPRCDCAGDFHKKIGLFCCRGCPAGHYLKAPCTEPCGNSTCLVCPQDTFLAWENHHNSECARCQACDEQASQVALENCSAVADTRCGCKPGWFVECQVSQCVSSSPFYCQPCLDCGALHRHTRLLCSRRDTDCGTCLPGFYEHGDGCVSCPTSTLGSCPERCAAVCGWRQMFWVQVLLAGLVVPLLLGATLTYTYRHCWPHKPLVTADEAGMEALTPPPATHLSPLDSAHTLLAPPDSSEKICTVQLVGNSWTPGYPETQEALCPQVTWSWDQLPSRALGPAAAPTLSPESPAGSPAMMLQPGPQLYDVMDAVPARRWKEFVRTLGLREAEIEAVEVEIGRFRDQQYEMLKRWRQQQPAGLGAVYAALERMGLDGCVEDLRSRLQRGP
Method: Slides of COS cells were transfected with expression vectors containing TWEAKR, DR3, or vector without insert (control). After two days the cells were incubated with concentrated supernatants from CV-1 cells transfected with a vector encoding the leucine zipper TWEAK extracellular domain fusion protein. One hour later the cells were washed and probed with an ¹²⁵Ilabeled antibody against the leucine-zipper domain. The slides were washed, fixed, and autoradiography was performed using x-ray film. The TWEAKR transfected cells bound significant amounts of TWEAK. […] This experiment confirmed that the TWEAKR polypeptide identified in part A above, rather than DR3, is the major receptor for TWEAK. After discovery of the functional TWEAK receptor, other investigators also reported that DR3 is not the major receptor for TWEAK (Kaptein et al., FEBS Lett., 485(2-3):135, 2000. The TWEAK-TWEAKR binding interaction was further characterized by Scatchard analysis.

[3] = molecular target: T3, human TWEAK receptor (TWEAKR), expressed on transfected COS cells (human, UniProt Q9NP84 28-129); assay: expression cloning by panning with TWEAK coated beads, then slide binding on transfected COS cells
T3 construct: 129 residue polypeptide cloned from a HUVEC library; Signal peptide 1-27 is predicted
T3 sequence: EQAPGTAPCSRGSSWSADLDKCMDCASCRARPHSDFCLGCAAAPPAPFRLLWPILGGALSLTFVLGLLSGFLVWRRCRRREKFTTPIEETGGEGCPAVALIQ
From the text: To clone TWEAKR cDNA, an expression vector encoding a growth hormone leader, a leucine zipper multimerization domain, and the C-terminal extracellular domain of human TWEAK (see Chicheportiche et al., J. Biol. Chem. 272(51):32401, 1997) was constructed. This expression vector, which was named pDC409-LZ-TWEAK, comprised the DNA sequence SEQ ID NO: 1 and encoded the polypeptide SEQ ID NO:2. pDC409-LZ-TWEAK conditioned supernatants were produced by transient transfection into CVI-EBNA cells. These supernatants were incubated with magnetic beads coated with polyclonal goat anti-mouse antibody that had previously been incubated with a mouse monoclonal antibody against the leucine zipper. Control beads were produced by mixing the coated beads with supernatants from cells transfected with empty vector.
A monolayer of COS cells grown in a T175 flask was transfected with 15 μg of DNA pools of complexity of 100,000 from a human umbilical vein endothelial cell (HUVEC) cDNA expression library. After 2 days these cells were lifted from the flask, and incubated in 1.5 mls of binding media plus 5% non-fat dried milk for 3 hours at 4° C. on a rotator wheel. […] Slide binding was performed as described more fully below, with the exception that TWEAKR positive slides were detected by incubation with […] followed by incubation with ¹²⁵I-labled M15 anti-leucine zipper.

B1: leucine zipper TWEAK extracellular domain fusion protein (product of pDC409-LZ-TWEAK) (ligand)
chain: not shown
notes: Used as conditioned supernatant of transfected CV-1/EBNA cells; also called TWEAK-leucine zipper
B1: binds [1]; no binding [2]; binds [3].
